± gives the standard error. This sample holds only a part of the variants without activity.
B1: glmS ribozyme (parent)
chain: AUAAAAGCGCCAGAACUACAGAAAUGUAGUUGACGAGGAGGAGGUUUAUCGAAUUUUCGGCGGAUGCCUCCAAA

What was measured:
Settings in all cases: with glucosamine-6-phosphate
glucosamine-6-phosphate [1] = variants of: B1; assay: self-cleavage kobs at 160 uM GlcN6P; higher = faster cleavage; RNA array
Procedure, shortened: (§1)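 Over ~14 h at 37 °C, tiles were imaged as glucosamine-6-phosphate (40 μM to 10 mM) in HEPES/KCl/Mg(OAc)2 buffer flowed across sequenced MiSeq chips. The chips carried barcoded ribozyme variants transcribed in situ by E. coli RNA polymerase and tracked with a hybridised Cy3 probe. After normalisation to baseline and to non-cleaving reference variants, one- or two-exponential decay fits of per-tile medians gave kobs. kcat and KM followed from weighted Michaelis–Menten fits across concentrations.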

glucosamine-6-phosphate [2] = variants of: B1; assay: self-cleavage kobs at 2500 uM GlcN6P; higher = faster cleavage; RNA array
Procedure, shortened: as §1

glucosamine-6-phosphate [3] = variants of: B1; assay: self-cleavage kobs at 10000 uM GlcN6P; higher = faster cleavage; RNA array
Procedure, shortened: as §1

glucosamine-6-phosphate [4] = variants of: B1; assay: self-cleavage kobs at 40 uM GlcN6P; higher = faster cleavage; RNA array
Procedure, shortened: as §1

glucosamine-6-phosphate [5] = variants of: B1; assay: self-cleavage kobs at 640 uM GlcN6P; higher = faster cleavage; RNA array
Procedure, shortened: as §1

Variant | self-cleavage kobs at 160 uM GlcN6P (glucosamine-6-phosphate [1]) [s⁻¹] | self-cleavage kobs at 2500 uM GlcN6P (glucosamine-6-phosphate [2]) [s⁻¹] | self-cleavage kobs at 10000 uM GlcN6P (glucosamine-6-phosphate [3]) [s⁻¹] | self-cleavage kobs at 40 uM GlcN6P (glucosamine-6-phosphate [4]) [s⁻¹] | self-cleavage kobs at 640 uM GlcN6P (glucosamine-6-phosphate [5]) [s⁻¹]
G7C U31G | < 1e-05 | < 1e-05 | < 1e-05 | – | –
A6G A14G C16U G32U G35C G41C C50A C71G | < 1e-05 | < 1e-05 | – | – | –
U55G C71G | – | 0.000704 ± 0.00019 | 0.00121 ± 0.00035 | 7.4e-05 ± 1.7e-05 | –
C58U G59C | – | – | – | < 1e-05 | –
A6G A15C U45A G59A | < 1e-05 | < 1e-05 | – | – | < 1e-05
A6G U30G G59U | < 1e-05 | < 1e-05 | – | – | < 1e-05
G7C C50A | < 1e-05 | – | < 1e-05 | – | < 1e-05
U65C C70A | < 1e-05 | – | – | < 1e-05 | –
G62U C67G | – | – | < 1e-05 | < 1e-05 | < 1e-05
U55G C68U | 0.00035 ± 8.1e-05 | 0.000382 ± 8.7e-05 | 0.00508 ± 0.00094 | 0.000294 ± 3.6e-05 | 0.00158 ± 0.00035
A6U A15C U55A G66U | < 1e-05 | < 1e-05 | – | – | < 1e-05
A6U A48C U57G | < 1e-05 | – | – | – | –
G7U C10A G29C U57C | < 1e-05 | < 1e-05 | – | – | < 1e-05
G7C G37U | < 1e-05 | < 1e-05 | – | – | < 1e-05
G60A G66A | < 1e-05 | – | – | < 1e-05 | –
G60A G66U | < 1e-05 | – | < 1e-05 | < 1e-05 | < 1e-05
A6U G38U G43U | < 1e-05 | < 1e-05 | – | – | –
G60U C70G | – | – | < 1e-05 | < 1e-05 | –
G60C G62C | < 1e-05 | – | – | < 1e-05 | –
A6C G37U C50U G60C | < 1e-05 | – | – | – | < 1e-05
G63A | – | – | < 1e-05 | < 1e-05 | < 1e-05
G63C | < 1e-05 | < 1e-05 | < 1e-05 | < 1e-05 | < 1e-05
C58A G63U U69C | – | – | – | < 1e-05 | –
A6U C11A | < 1e-05 | < 1e-05 | – | – | < 1e-05

Variant | self-cleavage kobs at 160 uM GlcN6P (glucosamine-6-phosphate [1]) [s⁻¹] | self-cleavage kobs at 2500 uM GlcN6P (glucosamine-6-phosphate [2]) [s⁻¹] | self-cleavage kobs at 10000 uM GlcN6P (glucosamine-6-phosphate [3]) [s⁻¹] | self-cleavage kobs at 40 uM GlcN6P (glucosamine-6-phosphate [4]) [s⁻¹] | self-cleavage kobs at 640 uM GlcN6P (glucosamine-6-phosphate [5]) [s⁻¹]
G7U G13U A15U G40C G41A A52U | < 1e-05 | < 1e-05 | – | – | < 1e-05
G7A G43C C71U | < 1e-05 | – | – | – | < 1e-05
U57C G59U C61U | – | – | < 1e-05 | < 1e-05 | –
A1C U30G | 0.000834 ± 0.00021 | 0.00723 ± 0.0018 | – | – | 0.00402 ± 0.0016
G7C C34U | < 1e-05 | < 1e-05 | < 1e-05 | – | < 1e-05
A6C G32U A64G C67U | < 1e-05 | < 1e-05 | – | – | < 1e-05
G7C U56A | < 1e-05 | < 1e-05 | < 1e-05 | – | < 1e-05
A6C C8U C10G A12U G38U | < 1e-05 | < 1e-05 | – | – | < 1e-05
A6C A36G C50U C67U | < 1e-05 | < 1e-05 | – | – | –
G7A G37A | < 1e-05 | – | < 1e-05 | – | < 1e-05
A6U C10G A36C | < 1e-05 | < 1e-05 | – | – | –
G7U U30C G32A | < 1e-05 | – | < 1e-05 | – | –
G7U G41U A53G | < 1e-05 | < 1e-05 | – | – | –
C8A A14U | < 1e-05 | < 1e-05 | – | – | < 1e-05
A6U U65G C70U | < 1e-05 | – | – | – | < 1e-05
C58A G59U G60U | – | – | < 1e-05 | < 1e-05 | –
C61U A64G C70G | – | – | – | < 1e-05 | –
U56G G62C | < 1e-05 | < 1e-05 | – | < 1e-05 | –
A6G U57A G60A C71G | < 1e-05 | < 1e-05 | – | – | < 1e-05
G60U U65A | < 1e-05 | < 1e-05 | < 1e-05 | < 1e-05 | < 1e-05
A1U U2A G63A | < 1e-05 | – | – | – | –
A6U G38U G60C | < 1e-05 | – | – | – | –
U56A G59C | < 1e-05 | < 1e-05 | < 1e-05 | < 1e-05 | < 1e-05
A6G C16G G40A C50U C70G | < 1e-05 | < 1e-05 | < 1e-05 | – | < 1e-05

— the supplement of paper PMC7125110
